Data: US20120316071A1

Assays:
[1] = molecular target: rHuman CD44/Fc Chimera, CF (R&D Systems Cat#3660-CD) (human) (UniProt P16070); assay: Multispot ECL (MSD), antigen spotted on plate, Fab […]; blank spot 162
[2] = molecular target: rHuman EGF R/Fc Chimera, CF (R&D Systems Cat#344-ER) (human) (UniProt P00533); assay: as above
[3] = molecular target: rHuman ErbB2/Fc Chimera, CF (R&D Systems Cat#1129-ER) (human) (UniProt P04626); assay: as above
[4] = molecular target: rHuman Erythropoietin R/Fc Chimera, CF (R&D Systems Cat#963-ER) (human) (UniProt P19235); assay: as above
[5] = molecular target: rHuman HGF R/c-MET/Fc Chimera, CF (R&D Systems Cat#358-MT/CF) (human) (UniProt P08581); assay: as above
[6] = molecular target: rHuman IGF-1 sR, (IGF-1 sR), CF (R&D Systems Cat#391-GR) (human) (UniProt P08069); assay: as above
[7] = molecular target: rHuman Notch-1/Fc Chimera, CF (R&D Systems Cat#3647-TK) (human) (UniProt P46531); assay: as above
[8] = molecular target: rHuman P-Cadherin/Fc Chimera, CF (R&D Systems Cat#861-PC) (human) (UniProt P22223); assay: as above
[9] = molecular target: rHuman CD44/Fc Chimera, CF (R&D Systems Cat#3660-CD) (human) (UniProt P16070); assay: Multispot ECL (MSD), antigen spotted on plate, Fab 170 nM; blank spot 262
[10] = molecular target: rHuman EGF R/Fc Chimera, CF (R&D Systems Cat#344-ER) (human) (UniProt P00533); assay: as above
[11] = molecular target: rHuman ErbB2/Fc Chimera, CF (R&D Systems Cat#1129-ER) (human) (UniProt P04626); assay: as above
[12] = molecular target: rHuman Erythropoietin R/Fc Chimera, CF (R&D Systems Cat#963-ER) (human) (UniProt P19235); assay: as above
[13] = molecular target: rHuman HGF R/c-MET/Fc Chimera, CF (R&D Systems Cat#358-MT/CF) (human) (UniProt P08581); assay: as above
[14] = molecular target: rHuman IGF-1 sR, (IGF-1 sR), CF (R&D Systems Cat#391-GR) (human) (UniProt P08069); assay: as above
[15] = molecular target: rHuman Notch-1/Fc Chimera, CF (R&D Systems Cat#3647-TK) (human) (UniProt P46531); assay: as above
[16] = molecular target: rHuman P-Cadherin/Fc Chimera, CF (R&D Systems Cat#861-PC) (human) (UniProt P22223); assay: as above
[17] = molecular target: rHuman CD44/Fc Chimera, CF (R&D Systems Cat#3660-CD) (human) (UniProt P16070); assay: Multispot ECL (MSD), antigen spotted on plate, Fab 340 nM; blank spot 554
[18] = molecular target: rHuman EGF R/Fc Chimera, CF (R&D Systems Cat#344-ER) (human) (UniProt P00533); assay: as above
[19] = molecular target: rHuman ErbB2/Fc Chimera, CF (R&D Systems Cat#1129-ER) (human) (UniProt P04626); assay: as above
[20] = molecular target: rHuman Erythropoietin R/Fc Chimera, CF (R&D Systems Cat#963-ER) (human) (UniProt P19235); assay: as above
[21] = molecular target: rHuman HGF R/c-MET/Fc Chimera, CF (R&D Systems Cat#358-MT/CF) (human) (UniProt P08581); assay: as above
[22] = molecular target: rHuman IGF-1 sR, (IGF-1 sR), CF (R&D Systems Cat#391-GR) (human) (UniProt P08069); assay: as above
[23] = molecular target: rHuman Notch-1/Fc Chimera, CF (R&D Systems Cat#3647-TK) (human) (UniProt P46531); assay: as above
[24] = molecular target: rHuman P-Cadherin/Fc Chimera, CF (R&D Systems Cat#861-PC) (human) (UniProt P22223); assay: as above
[25] = molecular target: rHuman CD44/Fc Chimera, CF (R&D Systems Cat#3660-CD) (human) (UniProt P16070); assay: Multispot ECL (MSD), antigen spotted on plate, Fab 85.0 nM; blank spot 292
[26] = molecular target: rHuman EGF R/Fc Chimera, CF (R&D Systems Cat#344-ER) (human) (UniProt P00533); assay: as above
[27] = molecular target: rHuman ErbB2/Fc Chimera, CF (R&D Systems Cat#1129-ER) (human) (UniProt P04626); assay: as above
[28] = molecular target: rHuman Erythropoietin R/Fc Chimera, CF (R&D Systems Cat#963-ER) (human) (UniProt P19235); assay: as above
[29] = molecular target: rHuman HGF R/c-MET/Fc Chimera, CF (R&D Systems Cat#358-MT/CF) (human) (UniProt P08581); assay: as above
[30] = molecular target: rHuman IGF-1 sR, (IGF-1 sR), CF (R&D Systems Cat#391-GR) (human) (UniProt P08069); assay: as above
[31] = molecular target: rHuman Notch-1/Fc Chimera, CF (R&D Systems Cat#3647-TK) (human) (UniProt P46531); assay: as above
[32] = molecular target: rHuman P-Cadherin/Fc Chimera, CF (R&D Systems Cat#861-PC) (human) (UniProt P22223); assay: as above

Chain of rHuman HGF R/c-MET/Fc Chimera, CF (R&D Systems Cat#358-MT/CF) (human) (P08581 25-932, change not shown): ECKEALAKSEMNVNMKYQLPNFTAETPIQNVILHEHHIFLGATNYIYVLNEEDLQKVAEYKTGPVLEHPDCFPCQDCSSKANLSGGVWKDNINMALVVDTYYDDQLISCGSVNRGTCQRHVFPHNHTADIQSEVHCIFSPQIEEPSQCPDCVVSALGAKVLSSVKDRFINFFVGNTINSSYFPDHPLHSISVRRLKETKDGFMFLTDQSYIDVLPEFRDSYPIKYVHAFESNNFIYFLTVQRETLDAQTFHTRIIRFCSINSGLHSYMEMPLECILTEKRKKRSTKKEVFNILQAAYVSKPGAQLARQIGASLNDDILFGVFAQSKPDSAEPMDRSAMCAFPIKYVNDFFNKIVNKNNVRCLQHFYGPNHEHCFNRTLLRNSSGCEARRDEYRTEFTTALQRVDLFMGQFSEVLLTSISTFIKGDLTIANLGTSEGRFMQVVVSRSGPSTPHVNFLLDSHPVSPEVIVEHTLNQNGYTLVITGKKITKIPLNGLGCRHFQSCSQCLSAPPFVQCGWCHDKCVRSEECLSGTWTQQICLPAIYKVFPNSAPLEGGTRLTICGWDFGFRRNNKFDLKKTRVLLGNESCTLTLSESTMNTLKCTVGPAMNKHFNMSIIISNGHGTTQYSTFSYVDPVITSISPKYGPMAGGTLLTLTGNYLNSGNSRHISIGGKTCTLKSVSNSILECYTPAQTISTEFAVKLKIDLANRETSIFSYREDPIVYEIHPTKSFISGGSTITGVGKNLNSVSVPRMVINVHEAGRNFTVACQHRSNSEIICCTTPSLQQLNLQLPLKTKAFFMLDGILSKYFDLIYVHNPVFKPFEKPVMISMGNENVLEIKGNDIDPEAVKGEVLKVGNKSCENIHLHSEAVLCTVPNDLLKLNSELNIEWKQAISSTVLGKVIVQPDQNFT
Chain of rHuman Erythropoietin R/Fc Chimera, CF (R&D Systems Cat#963-ER) (human) (P19235 25-250, change not shown): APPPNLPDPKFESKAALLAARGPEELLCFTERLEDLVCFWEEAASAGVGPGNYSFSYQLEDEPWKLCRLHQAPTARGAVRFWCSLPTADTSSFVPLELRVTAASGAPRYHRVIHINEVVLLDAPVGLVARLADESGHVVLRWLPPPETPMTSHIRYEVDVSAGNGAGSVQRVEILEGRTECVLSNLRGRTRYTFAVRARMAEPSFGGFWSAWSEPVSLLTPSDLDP

B1: Fab VH4-34_IGHD7-27*01_IGHJ4*01 & V4-6_IGLJ4*01 (Fab, V domains shown)
VH: QVQLQQWGAGLLKPSETLSLTCAVYGGSFSGYYWSWIRQPPGKGLEWIGEINHSGSTNYNPSLKSRVTISVDTSKNQFSLKLSSVTAADTAVYYCARANWGDYFDYWGQGTLVTVSS
VL: RPVLTQPPSLSASPGATARLPCTLSSDLSVGGKNMFWYQQKPGSSPRLFLYHYSDSDKQLGPGVPSRVSGSKETSSNTAFLLISGLQPEDEADYYCQVYESSANFVFGGGTQLIIL
- ECL signal [1]: 522
- ECL signal [2]: 528
- ECL signal [3]: 866
- ECL signal [4]: 494
- ECL signal [5]: 607
- ECL signal [6]: 646
- ECL signal [7]: 649
- ECL signal [8]: 421
- ECL signal [9]: 660
- ECL signal [10]: 826
- ECL signal [11]: 964
- ECL signal [12]: 790
- ECL signal [13]: 757
- ECL signal [14]: 832
- ECL signal [15]: 816
- ECL signal [16]: 744
- ECL signal [17]: 959
- ECL signal [18]: 1210
- ECL signal [19]: 1230
- ECL signal [20]: 1260
- ECL signal [21]: 1240
- ECL signal [22]: 1040
- ECL signal [23]: 1210
- ECL signal [24]: 1160
- ECL signal [25]: 693
- ECL signal [26]: 1000
- ECL signal [27]: 844
- ECL signal [28]: 817
- ECL signal [29]: 998
- ECL signal [30]: 891
- ECL signal [31]: 780
- ECL signal [32]: 709
